The target of experiment [1] is T1, human CD137-His6 (Sino Biological #10041-H08H) (human, UniProt Q07011 24-186).
T1 construct: Bought; also called human CD137 protein; not shown: His6 tag
The experiment in a line: SPR Biacore, IgG. (Surface plasmon resonance follows binding to a sensor surface in real time, without labels.)

Experiment [2] concerns the target T2, mouse CD137 protein (Biacore) (mouse, UniProt P20334 24-178, limits assumed).
T2 construct: Construct used as SPR analyte not described
T2 sequence: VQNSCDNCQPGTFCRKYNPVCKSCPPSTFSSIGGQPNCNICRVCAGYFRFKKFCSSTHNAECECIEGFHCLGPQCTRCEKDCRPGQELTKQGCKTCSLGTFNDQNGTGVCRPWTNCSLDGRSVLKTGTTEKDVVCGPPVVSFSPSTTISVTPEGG
The experiment in a line: SPR Biacore.

Experiment [3] concerns the target T3, mouse CD137 fused with human FC fragment (mouse, UniProt P20334 24-178, limits assumed).
T3 construct: also called mouse CD137-Fc; not shown: human Fc fragment
T3 sequence: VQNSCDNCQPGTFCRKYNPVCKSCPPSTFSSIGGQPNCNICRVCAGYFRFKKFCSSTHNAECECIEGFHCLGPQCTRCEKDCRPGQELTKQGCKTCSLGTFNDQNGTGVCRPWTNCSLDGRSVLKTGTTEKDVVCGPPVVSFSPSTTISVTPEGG
The experiment in a line: ELISA, coated CD137-Fc.

Experiment [4] has as its target T4, full-length mouse CD137 on the cell surface (mouse, UniProt P20334 24-178).
T4 sequence: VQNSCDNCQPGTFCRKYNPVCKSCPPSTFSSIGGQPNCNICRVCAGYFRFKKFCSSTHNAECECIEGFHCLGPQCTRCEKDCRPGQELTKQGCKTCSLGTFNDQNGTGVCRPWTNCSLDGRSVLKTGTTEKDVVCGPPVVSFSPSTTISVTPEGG
The experiment in a line: flow cytometry, yeast display [Cont.]. For orientation: Flow cytometry measures light scatter and fluorescence of single cells or particles in a stream.

The target of experiment [5] is T5, Hu_CRD3 (human, limits assumed).
T5 construct: also called human CD137 CRD3
T5 chain: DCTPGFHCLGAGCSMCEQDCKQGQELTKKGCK
The experiment in a line: flow cytometry, yeast display [Cont.].

The target in experiment [6] is T6, rat CD137 on the cell surface (rat, UniProt Q4W8J3 24-258).
T6 sequence: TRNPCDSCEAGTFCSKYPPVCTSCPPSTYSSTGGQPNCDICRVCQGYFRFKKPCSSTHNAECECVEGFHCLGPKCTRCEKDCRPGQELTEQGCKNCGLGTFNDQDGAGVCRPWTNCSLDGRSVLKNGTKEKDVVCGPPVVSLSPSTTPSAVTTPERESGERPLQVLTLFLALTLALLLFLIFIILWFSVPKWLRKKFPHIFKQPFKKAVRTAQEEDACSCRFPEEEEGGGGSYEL
The experiment in a line: flow cytometry, HEK293F cells expressing CD137.

The target in experiment [7] is T4, full-length mouse CD137 on the cell …. The experiment in a line: flow cytometry, HEK293F cells expressing CD137 or mutant.

B1: AG10124 (antibody, human IgG4 S228P, kappa, V domains shown)
VH: EVQLVESGGGLVQPGGSLRLSCAASGFSLSTGGVGVAWIRQAPGKGLEWVSSISGYGSTTYYADSVKGRFTISRDNSKNTLYLQLNSLRAEDTAVYYCAREGSDAVLGDWFGYWGQGTLVTVSS
VL: DIQLTQSPSSLSASVGDRVTITCQASQDITTYLAWYQQKPGKAPKLLIYDASNRATGIPSRFSGSGSGTDFTLTISSLQPEDFATYYCQQGYYLWTFGQGTKVEIKR
notes: also called IgG of Fab 5302
What is called Kd is the free concentration of one partner at which half of the binding sites on the other are occupied at equilibrium, for simple one-to-one binding. The koff is the first-order rate constant of dissociation. One may read the kon as a measure of how fast the partners come together. A lower kon goes with slow association. In experiment [1], B1 came in with a Kd of 0.006 µM, a koff of 0.003 s⁻¹ and a kon of 500000 M⁻¹ s⁻¹.

B2: AC1097 (antibody, V domains shown)
VH: EVQLVQSGAEVKKPGESLRISCKGSGYSFSTYWISWVRQMPGKGLEWMGKIYPGDSYTNYSPSFQGQVTISADKSISTAYLQWSSLKASDTAMYYCARGYGIFDYWGQGTLVTVSS
VL: SYELTQPPSVSVSPGQTASITCSGDNIGDQYAHWYQQKPGQSPVLVIYQDKNRPSGIPERFSGSNSGNTATLTISGTQAMDEADYYCATYTGFGSLAVFGGGTKLTVL
For the molecule B2, the binding result in experiment [2] is “no binding”; in experiment [3], “no binding”; in experiment [6], “no binding (tested: 100 nM (text paragraph 220))”. The “% in upper right quadrant” value in experiment [4] stood at 0.59%; in experiment [5], 0.22%; in experiment [7], 0.005%. The results for the Mean in experiment [4] and in experiment [5] were 16200 and 12700, respectively.

B3: AG10129 (antibody, human IgG4 S228P, kappa, V domains shown)
VH: EVQLVESGGGLVQPGGSLRLSCAASGFTFSSYWIHWVRQAPGKGLEWVSVISGDGDTTYYADSVKGRFTISRDNSKNTLYLQLNSLRAEDTAVYYCARSRGLVLDAFDYWGQGTLVTVSS
VL: DIQLTQSPSSLSASVGDRVTITCRASQSVSGRFLAWYQQKPGKAPKLLIYDASSLESGVPSRFSGSGSGTDFTLTISSLQPEDFATYYCQQYDYWPPYTFGQGTKVEIKR
notes: also called IgG of Fab 5353
In experiment [1], B3 came in with a Kd of 0.019 µM, a koff of 0.006 s⁻¹ and an association rate constant (kon) of 310000 M⁻¹ s⁻¹.

For the origin of these results see patent US20190055314A1 (ADAGENE, published 2019).
